Data as given in IntAct's records for PubMed 22615398.

B1: Geminin (Homo sapiens), O75496 (parent)
chain: MNPSMKQKQEEIKENIKNSSVPRRTLKMIQPSASGSLVGRENELSAGLSKRKHRNDHLTSTTSSPGVIVPESSENKNLGGVTQESFDLMIKENPSSQYWKEVAEKRRKALYEALKENEKLHKEIEQKDNEIARLKKENKELAEVAEHVQYMAELIERLNGEPLDNFESLDNQEFDSEEETVEDSLVEDSEIGTCAEGTVSSSTDAKPCI

Variants of: B1
Conditions: with hxc9_human HOXC9, P31274
Sequence of hxc9_human HOXC9, P31274 (P31274 whole entry): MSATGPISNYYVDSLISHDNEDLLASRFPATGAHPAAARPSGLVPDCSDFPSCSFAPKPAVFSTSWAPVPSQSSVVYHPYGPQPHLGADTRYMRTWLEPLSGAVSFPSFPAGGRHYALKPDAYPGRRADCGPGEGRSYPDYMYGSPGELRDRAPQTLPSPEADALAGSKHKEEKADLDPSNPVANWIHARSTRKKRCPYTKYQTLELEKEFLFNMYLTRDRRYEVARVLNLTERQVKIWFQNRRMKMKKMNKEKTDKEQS

| effect of a mutation on the interaction | Variant |
| --- | --- |
| increasing interaction strength | S184E |
| decreasing interaction strength | V186A;E187Q;D188N |

More lines, now with the values behind:

| Variant | effect of a mutation on the interaction |
| --- | --- |
| V181A;E182Q;D183N | decreasing interaction strength |
| E177Q;E178Q;E179Q | decreasing interaction strength |
| E177Q;E178Q;E179Q;E182Q;E187Q;D188N | decreasing interaction strength |
